Reference: the supplement of paper PMC10065799, “High-throughput profiling of sequence recognition by tyrosine kinases and SH2 domains using bacterial peptide display” (eLife, 2023)

Each sequence was assayed on AncSZ (assay: phosphorylation enrichment, bacterial display (enrichment ratio); higher = better substrate or ligand; peptides without Tyr show the background).
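Also: 11-residue human phosphosite peptides and single-mutation variants displayed on the E. coli surface, counted by deep sequencing, each peptide's frequency after selection divided by its frequency in the unselected input library; frequency after pTyr selection over input frequency; kinase dosed for 20-30% of maximal phosphorylation in three min.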

Sequence	phosphorylation enrichment
RMLREYQELMS [KRT74_Y425]	0.821
VSYDEYRYRSF [CFTR_Y515_V520F]	0.89
TFGVLYKARNK [CDK2_Y19_V18L_YF]	0.838
IRKDLYSNNVL [ACTC1_Y296_A297S]	0.506
VNRSGYTLIRK [ATP6V0A2_Y688]	0.64
GEDEPYAEPFA [APBA1_Y183_S184A_YF]	1.43
ISKTWYSAEQF [CD207_Y217_P213S]	0.793
RLKAKYPAATG [GLI3_Y933_A934P]	0.713
RRYLYYYSYLL [PTEN_Y177_V175L]	1.13
ETGEPCRLSPE [EIF4G1_Y311_Y311C]	1.13
SSVKPYRVFCD [FGB_Y266_YF]	0.701
RENGPYYTSYP [GDAP2_Y487]	1.17
VEDPEYAVTQP [STOML2_Y124_L129P]	1.54
QLPRGYISILV [BAG3_Y205_P209L]	1.11
HITQVYGFFDE [PPP2CA_Y127_Q122H_YF]	2.03
KDHPDYEYQPR [SOX9_Y172_K173E]	2.59
KDIENYIQDGK [RAD50_Y964]	0.923

Sequence	phosphorylation enrichment
MCVKSYTIHFS [F5_Y2153_Y2149C_YF]	1.47
HYVYYYSYLLK [PTEN_Y178_R173H]	2.09
VNFGAYINDFN [GLB1_Y488_K493N_YF]	0.954
NALAQYQEMEK [BBS4_Y395]	1.1
NPQKSCFIRLF [WAS_Y83_Y83C_YF]	1.06
NTSKMYIPHTD [EXPH5_Y782_D777N]	0.663
FSMGCYEISLG [HMGCL_Y198_YF]	1.93
KPGLVYNKVNP [SPRED3_Y72]	0.704
DQNVEYKGTVW [FHL1_Y117]	0.95
LYNQDYPIHSV [GATM_Y227]	1.17
NDQANYSLNTD [ADA_Y290]	0.966
GVYSRYFTTYD [CLCA1_Y661]	1.35
EFNINYNNELP [THG1L_Y228]	0.734
LRLFSYSTTIR [CYP7B1_Y365_S363F]	0.815
NTGNFYDLFGG [PTPN11_Y63_D61N_YF]	0.844
KDHPDYKFPPR [SOX10_Y171_Q174P_YF]	0.883

These sequences were tested against EPHB1 (UniProt P54762) in the same assay as above.
Chain of EPHB1 (P54762 whole entry, looked up): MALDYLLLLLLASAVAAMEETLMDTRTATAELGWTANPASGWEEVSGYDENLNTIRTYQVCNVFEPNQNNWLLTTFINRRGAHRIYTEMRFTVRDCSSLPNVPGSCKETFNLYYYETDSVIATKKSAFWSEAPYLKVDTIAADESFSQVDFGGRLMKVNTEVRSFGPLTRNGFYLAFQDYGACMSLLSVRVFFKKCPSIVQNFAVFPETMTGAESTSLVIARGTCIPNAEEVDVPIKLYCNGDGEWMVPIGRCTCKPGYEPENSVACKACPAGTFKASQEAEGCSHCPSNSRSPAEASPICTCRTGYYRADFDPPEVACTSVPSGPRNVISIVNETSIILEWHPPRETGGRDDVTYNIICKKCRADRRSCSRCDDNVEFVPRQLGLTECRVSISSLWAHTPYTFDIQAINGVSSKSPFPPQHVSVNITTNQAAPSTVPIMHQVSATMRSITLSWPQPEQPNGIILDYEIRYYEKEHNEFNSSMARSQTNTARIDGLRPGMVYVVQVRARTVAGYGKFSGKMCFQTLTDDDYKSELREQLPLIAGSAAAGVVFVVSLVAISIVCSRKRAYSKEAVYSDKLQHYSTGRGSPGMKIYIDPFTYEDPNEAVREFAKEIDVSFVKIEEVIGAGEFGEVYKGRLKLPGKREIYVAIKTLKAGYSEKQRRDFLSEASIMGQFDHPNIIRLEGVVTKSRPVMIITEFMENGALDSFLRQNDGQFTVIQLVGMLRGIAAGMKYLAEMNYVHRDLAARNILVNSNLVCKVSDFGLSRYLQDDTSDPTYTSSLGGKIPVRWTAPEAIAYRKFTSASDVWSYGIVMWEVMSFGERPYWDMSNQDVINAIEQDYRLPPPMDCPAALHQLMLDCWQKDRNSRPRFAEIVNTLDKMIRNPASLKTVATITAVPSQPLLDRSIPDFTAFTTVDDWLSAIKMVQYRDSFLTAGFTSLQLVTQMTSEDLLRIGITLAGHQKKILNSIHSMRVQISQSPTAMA

Sequence	phosphorylation enrichment
RMLREYQELMS [KRT74_Y425]	0.66
VSYDEYRYRSF [CFTR_Y515_V520F]	0.69
TFGVLYKARNK [CDK2_Y19_V18L_YF]	0.592
IRKDLYSNNVL [ACTC1_Y296_A297S]	0.497
VNRSGYTLIRK [ATP6V0A2_Y688]	0.333
GEDEPYAEPFA [APBA1_Y183_S184A_YF]	0.584
ISKTWYSAEQF [CD207_Y217_P213S]	1.84
RLKAKYPAATG [GLI3_Y933_A934P]	0.708
RRYLYYYSYLL [PTEN_Y177_V175L]	1.13
ETGEPCRLSPE [EIF4G1_Y311_Y311C]	0.62
SSVKPYRVFCD [FGB_Y266_YF]	0.432
RENGPYYTSYP [GDAP2_Y487]	0.896
VEDPEYAVTQP [STOML2_Y124_L129P]	0.567
QLPRGYISILV [BAG3_Y205_P209L]	0.583
HITQVYGFFDE [PPP2CA_Y127_Q122H_YF]	1.09
KDHPDYEYQPR [SOX9_Y172_K173E]	2.21
KDIENYIQDGK [RAD50_Y964]	0.504

Sequence	phosphorylation enrichment
MCVKSYTIHFS [F5_Y2153_Y2149C_YF]	0.718
HYVYYYSYLLK [PTEN_Y178_R173H]	2.74
VNFGAYINDFN [GLB1_Y488_K493N_YF]	0.633
NALAQYQEMEK [BBS4_Y395]	0.466
NPQKSCFIRLF [WAS_Y83_Y83C_YF]	0.606
NTSKMYIPHTD [EXPH5_Y782_D777N]	0.35
FSMGCYEISLG [HMGCL_Y198_YF]	1.03
KPGLVYNKVNP [SPRED3_Y72]	0.413
DQNVEYKGTVW [FHL1_Y117]	0.558
LYNQDYPIHSV [GATM_Y227]	0.866
NDQANYSLNTD [ADA_Y290]	0.623
GVYSRYFTTYD [CLCA1_Y661]	1.12
EFNINYNNELP [THG1L_Y228]	0.383
LRLFSYSTTIR [CYP7B1_Y365_S363F]	0.654
NTGNFYDLFGG [PTPN11_Y63_D61N_YF]	0.436
KDHPDYKFPPR [SOX10_Y171_Q174P_YF]	0.387

What follows are sequences tested against EPHB2 (UniProt P29323) in the same assay as above.
Chain of EPHB2 (P29323 whole entry, looked up): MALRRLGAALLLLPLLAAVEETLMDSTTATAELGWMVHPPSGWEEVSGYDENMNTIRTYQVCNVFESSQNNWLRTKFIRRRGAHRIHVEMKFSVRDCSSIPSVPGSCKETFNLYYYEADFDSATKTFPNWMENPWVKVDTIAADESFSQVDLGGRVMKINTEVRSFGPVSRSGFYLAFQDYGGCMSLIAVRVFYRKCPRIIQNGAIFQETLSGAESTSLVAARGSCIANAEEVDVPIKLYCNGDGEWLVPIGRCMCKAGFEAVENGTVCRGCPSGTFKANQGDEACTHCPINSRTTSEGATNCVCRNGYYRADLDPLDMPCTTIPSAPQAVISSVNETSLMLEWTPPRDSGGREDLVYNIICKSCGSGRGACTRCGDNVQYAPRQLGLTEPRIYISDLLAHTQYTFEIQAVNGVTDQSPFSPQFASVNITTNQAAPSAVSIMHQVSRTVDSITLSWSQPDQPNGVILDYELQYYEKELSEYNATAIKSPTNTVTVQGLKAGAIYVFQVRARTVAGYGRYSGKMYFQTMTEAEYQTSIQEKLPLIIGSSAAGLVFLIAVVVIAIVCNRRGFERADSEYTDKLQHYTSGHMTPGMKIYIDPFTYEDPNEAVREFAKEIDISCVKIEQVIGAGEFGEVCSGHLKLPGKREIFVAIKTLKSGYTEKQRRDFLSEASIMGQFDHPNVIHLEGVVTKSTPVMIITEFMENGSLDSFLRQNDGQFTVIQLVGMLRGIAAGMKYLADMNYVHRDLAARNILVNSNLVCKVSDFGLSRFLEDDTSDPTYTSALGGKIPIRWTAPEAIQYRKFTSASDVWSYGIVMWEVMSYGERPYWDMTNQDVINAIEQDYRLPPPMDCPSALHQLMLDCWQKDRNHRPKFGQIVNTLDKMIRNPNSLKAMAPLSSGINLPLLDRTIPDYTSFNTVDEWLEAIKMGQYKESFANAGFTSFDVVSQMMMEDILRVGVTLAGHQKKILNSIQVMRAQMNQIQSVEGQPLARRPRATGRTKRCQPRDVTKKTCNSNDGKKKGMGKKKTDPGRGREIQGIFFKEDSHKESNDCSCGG

Sequence	phosphorylation enrichment
RMLREYQELMS [KRT74_Y425]	0.432
VSYDEYRYRSF [CFTR_Y515_V520F]	0.467
TFGVLYKARNK [CDK2_Y19_V18L_YF]	0.599
IRKDLYSNNVL [ACTC1_Y296_A297S]	0.476
VNRSGYTLIRK [ATP6V0A2_Y688]	0.444
GEDEPYAEPFA [APBA1_Y183_S184A_YF]	0.571
ISKTWYSAEQF [CD207_Y217_P213S]	1.8
RLKAKYPAATG [GLI3_Y933_A934P]	0.697
RRYLYYYSYLL [PTEN_Y177_V175L]	0.91
ETGEPCRLSPE [EIF4G1_Y311_Y311C]	0.674
SSVKPYRVFCD [FGB_Y266_YF]	0.394
RENGPYYTSYP [GDAP2_Y487]	1.45
VEDPEYAVTQP [STOML2_Y124_L129P]	0.602
QLPRGYISILV [BAG3_Y205_P209L]	0.848
HITQVYGFFDE [PPP2CA_Y127_Q122H_YF]	1.11
KDHPDYEYQPR [SOX9_Y172_K173E]	0.958
KDIENYIQDGK [RAD50_Y964]	0.515

Sequence	phosphorylation enrichment
MCVKSYTIHFS [F5_Y2153_Y2149C_YF]	0.622
HYVYYYSYLLK [PTEN_Y178_R173H]	1.37
VNFGAYINDFN [GLB1_Y488_K493N_YF]	0.6
NALAQYQEMEK [BBS4_Y395]	0.471
NPQKSCFIRLF [WAS_Y83_Y83C_YF]	0.578
NTSKMYIPHTD [EXPH5_Y782_D777N]	0.423
FSMGCYEISLG [HMGCL_Y198_YF]	1.01
KPGLVYNKVNP [SPRED3_Y72]	0.395
DQNVEYKGTVW [FHL1_Y117]	0.545
LYNQDYPIHSV [GATM_Y227]	1.03
NDQANYSLNTD [ADA_Y290]	0.68
GVYSRYFTTYD [CLCA1_Y661]	1.25
EFNINYNNELP [THG1L_Y228]	0.516
LRLFSYSTTIR [CYP7B1_Y365_S363F]	0.45
NTGNFYDLFGG [PTPN11_Y63_D61N_YF]	0.548
KDHPDYKFPPR [SOX10_Y171_Q174P_YF]	0.444

What follows are sequences tested against FGFR1 (UniProt P11362) in the same assay as above.
Chain of FGFR1 (P11362 whole entry, looked up): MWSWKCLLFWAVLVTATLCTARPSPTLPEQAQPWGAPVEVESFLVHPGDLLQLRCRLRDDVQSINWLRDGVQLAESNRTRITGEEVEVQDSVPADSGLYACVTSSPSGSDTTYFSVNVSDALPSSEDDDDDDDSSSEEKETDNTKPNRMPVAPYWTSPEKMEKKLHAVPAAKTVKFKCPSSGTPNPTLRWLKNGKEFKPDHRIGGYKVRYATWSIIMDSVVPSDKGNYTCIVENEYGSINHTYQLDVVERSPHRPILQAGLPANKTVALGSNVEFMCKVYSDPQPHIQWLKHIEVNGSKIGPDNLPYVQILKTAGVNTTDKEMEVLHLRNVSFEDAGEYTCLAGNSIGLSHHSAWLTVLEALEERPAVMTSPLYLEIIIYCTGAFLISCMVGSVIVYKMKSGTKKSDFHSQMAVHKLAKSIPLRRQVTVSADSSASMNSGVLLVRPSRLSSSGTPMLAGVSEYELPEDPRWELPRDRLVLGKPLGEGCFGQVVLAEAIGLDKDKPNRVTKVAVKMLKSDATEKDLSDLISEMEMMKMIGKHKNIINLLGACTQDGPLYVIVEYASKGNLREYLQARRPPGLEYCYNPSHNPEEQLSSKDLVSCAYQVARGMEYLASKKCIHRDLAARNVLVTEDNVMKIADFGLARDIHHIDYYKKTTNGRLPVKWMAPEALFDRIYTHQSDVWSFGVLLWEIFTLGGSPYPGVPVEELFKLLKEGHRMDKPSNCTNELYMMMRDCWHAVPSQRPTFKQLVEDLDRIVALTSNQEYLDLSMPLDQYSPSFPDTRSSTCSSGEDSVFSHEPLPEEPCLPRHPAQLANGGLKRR

Sequence	phosphorylation enrichment
RMLREYQELMS [KRT74_Y425]	0.95
VSYDEYRYRSF [CFTR_Y515_V520F]	0.486
TFGVLYKARNK [CDK2_Y19_V18L_YF]	0.436
IRKDLYSNNVL [ACTC1_Y296_A297S]	0.425
VNRSGYTLIRK [ATP6V0A2_Y688]	0.315
GEDEPYAEPFA [APBA1_Y183_S184A_YF]	0.607
ISKTWYSAEQF [CD207_Y217_P213S]	0.605
RLKAKYPAATG [GLI3_Y933_A934P]	0.716
RRYLYYYSYLL [PTEN_Y177_V175L]	1.74
ETGEPCRLSPE [EIF4G1_Y311_Y311C]	0.612
SSVKPYRVFCD [FGB_Y266_YF]	0.453
RENGPYYTSYP [GDAP2_Y487]	3.44
VEDPEYAVTQP [STOML2_Y124_L129P]	0.646
QLPRGYISILV [BAG3_Y205_P209L]	0.589
HITQVYGFFDE [PPP2CA_Y127_Q122H_YF]	1.32
KDHPDYEYQPR [SOX9_Y172_K173E]	0.844
KDIENYIQDGK [RAD50_Y964]	0.543

Sequence	phosphorylation enrichment
MCVKSYTIHFS [F5_Y2153_Y2149C_YF]	0.525
HYVYYYSYLLK [PTEN_Y178_R173H]	6.85
VNFGAYINDFN [GLB1_Y488_K493N_YF]	0.474
NALAQYQEMEK [BBS4_Y395]	0.594
NPQKSCFIRLF [WAS_Y83_Y83C_YF]	0.583
NTSKMYIPHTD [EXPH5_Y782_D777N]	0.415
FSMGCYEISLG [HMGCL_Y198_YF]	0.652
KPGLVYNKVNP [SPRED3_Y72]	0.383
DQNVEYKGTVW [FHL1_Y117]	0.455
LYNQDYPIHSV [GATM_Y227]	2.26
NDQANYSLNTD [ADA_Y290]	0.566
GVYSRYFTTYD [CLCA1_Y661]	0.571
EFNINYNNELP [THG1L_Y228]	0.488
LRLFSYSTTIR [CYP7B1_Y365_S363F]	0.357
NTGNFYDLFGG [PTPN11_Y63_D61N_YF]	0.537
KDHPDYKFPPR [SOX10_Y171_Q174P_YF]	0.656
